This series deals with the molecule itself. Put plainly: crystal structure.

B1: 14-3-3θ protein (natural protein)
chain: EKTELIQKAKLAEQAERYDDMATCMKAVTEQGAELSNEERNLLSVAYKNVVGGRRSAWRVISSIEQKTDTSDKKLQLIKDYREKVESELRSICTTVLELLDKYLIANATNPESKVFYLKMKGDYFRYLAEVACGDDRKQTIDNSQGAYQEAFDISKKEMQPTHPIRLGLALNFSVFYYEILNNPELACTLAKTAFDEAIAELDTLNEDSYKDSTLIMQLLRDNLTLWTSDSAG
B1: the “stoichiometry N” value came to 2.

For the origin of these results see article PMC7578760 (iScience, 2020).
